The text below walks through data of paper doi:10.1101/2020.05.04.076331.

Read-outs that look alike come from different tables or passages of the source.

As a reminder, the Kd is the constant that tells how readily two partners part at equilibrium. Read a high Kd as a looser complex.

Assay [1] addresses ^FSClpX (TAMRA-labelled single-chain E. coli ^C169SClpX^ΔN pseudohexamer) (E. coli). In words: other fluorescence titration.
Assay [2] concerns the target ^FSClpXP (^FSClpX with ClpP) (E. coli) (UniProt P0A6G7). In words: other fluorescence titration.
Chain of UniProt P0A6G7 (P0A6G7 whole entry, looked up): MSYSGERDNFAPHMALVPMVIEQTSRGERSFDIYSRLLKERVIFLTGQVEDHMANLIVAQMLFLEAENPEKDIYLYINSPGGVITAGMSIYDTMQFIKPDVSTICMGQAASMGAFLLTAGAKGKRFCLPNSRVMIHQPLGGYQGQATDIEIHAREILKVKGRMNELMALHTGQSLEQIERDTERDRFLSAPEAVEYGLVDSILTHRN
Assay [3] has the same target. The experiment in a line: stopped-flow fluorescence quenching.
Assay [4] shares this target. In words: stopped-flow fluorescence quenching. This is another data set of the same source.
In assay [5] the target is ^FSClpX (TAMRA-labelled single-chain E. coli ^C169SClpX^ΔN pseudohexamer) (E. coli). In words: other fluorescence titration. This is another data set of the same source.
For assay [6], the target named is ^FSClpXP (^FSClpX with ClpP) (E. coli) (UniProt P0A6G7). In words: other fluorescence titration. The source holds these as a separate data set.

Consider “titin-BQ-ssrA (ssrA-tagged I27 domain of human titin labelled with the BHQ-10 quencher) (domain or fragment)”, for which the Kd in assay [1] is 59 nM; in assay [2], 30 to 100 nM; in assay [5], 110 nM; in assay [6], 60 nM. Moreover, the time constant of dissociation, fast phase in assay [3] was determined as 3 s; in assay [4], 2 s. Moreover, the time constant of dissociation, slow phase was 50 s in assay [3] and 240 s in assay [4].

With “^UFtitin-BQ-ssrA (titin-BQ-ssrA unfolded by carboxymethylation of otherwise-buried cysteines) (domain or fragment)”, the Kd in assay [1] worked out at 90 nM; in assay [5], 550 nM.
